Measurements from PMC5931557.

B1: mTRAIL-R: N99/N122/N150Q (protein)
parent chain: MEPPGPSTPTASAAARADHYTPGLRPLPKRRLLYSFALLLAVLQAVFVPVTANPAHNRPAGLQRPEESPSRGPCLAGQYLSEGNCKPCREGIDYTSHSNHSLDSCILCTVCKEDKVVETRCNITTNTVCRCKPGTFEDKDSPEICQSCSNCTDGEEELTSCTPRENRKCVSKTAWASWHKLGLWIGLLVPVVLLIGALLVWKTGAWRQWLLCIKRGCERDPESANSVHSSLLDRQTSSTTNDSNHNTEPGKTQKTGKKLLVPVNGNDSADDLKFIFEYCSDIVPFDSWNRLMRQLGLTDNQIQMVKAETLVTREALYQMLLKWRHQTGRSASINHLLDALEAVEERDAMEKIEDYAVKSGRFTYQNAAAQPETGPGGSQCV
B2: mTRAIL-R: tunicamycin (protein)
parent chain: B1 parent chain

Experiments:
[1] = cell surface staining, flow cytometry; reducing immunoblot; details: glycan lost; control: WT mTRAIL-R
[2] = non-reducing SDS-PAGE immunoblot, transient overexpression; details: glycan lost; control: WT mTRAIL-R
[3] = cell surface flow cytometry, 7 h TU; details: glycan lost; control: untreated MEFs
[4] = streptavidin pulldown, non-reducing immunoblot; details: glycan lost; control: untreated MEFs

Row | Protein | expression_or_secretion [1] | oligomerisation [2] | localisation_or_trafficking [3] | oligomerisation [4]
1 | B1 | no change, the mean intensity of the signal was even weaker for the N99/N122/N150Q mTRAIL-R-expressing cells | changes |  | 
2 | B2 |  |  | no change | changes
